In the supplement of paper PMC10567573:

B1: SPDEF (parent)
chain: YPEDSSWAAKAPGASSREEPPEEP

Variants of: B1
Test: protein stability index of a GFP-peptide fusion (GPS, HEK-293T) (PSI 1-6); higher = more stable
Conditions: c terminus: a fixed tail appended
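Further: lentivirally expressed fusions sorted by FACS into six bins by GFP to DsRed ratio, PSI derived from sequencing read proportions per bin multiplied by bin number.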

Protein stability index, by site and new letter:
S15: M 3.77; D 4.61; R 3.96; T 3.97; P 4.36; N 3.9; I 4.11; G 3.53; K 3.23; F 2.86; L 3.58; Q 3.47; Y 3.1; V 2.7; H 4.72; E 4.14
A11: W 3.56; I 3.51; N 4.59; P 4.6; D 4.51; K 3.9; F 3.71; S 4.01; E 3.99; R 4.78; G 3.68; L 3.76; H 4.13; Y 3.75; M 2.63
W7: L 5.68; V 5.52; E 5.88; H 5.95; M 4.42; Y 5.92; F 5.86; S 5.79; T 5.98; P 5.38; R 5.96; N 5.91
K10: C 2.56; S 3.69; N 4.19; I 3.65; F 2.79; Y 1.79; Q 3.11; A 2.79; H 3.26; T 3.36
E19: S 4.97; C 3.58; V 4.48; K 3.91; H 3.12; T 4.49; D 3.37; Q 3.69; M 4.07; N 4.32; F 3.06
S16: Q 2.88; K 4.51; A 3.72; Y 3.73; D 4.23; M 4.67; H 3.92; P 3.72; W 3.71; N 3.53; V 3.78; I 3.86; C 3.83; T 2.85; F 4.2; L 4.36
A9: K 3.97; Y 2.88; Q 4.04; W 3.11; I 3.23; H 3.4; M 4.11; D 5.61; P 4.23; T 4.32; R 4.36; V 3.82; E 5.42
G13: F 3.87; A 3.64; Y 3.49; L 4.09; E 4.05; T 3.91; N 4.22; P 3.94; Q 4.07; D 3.36
E18: H 3.86; D 4.86; Y 3.46; C 2.82; M 3.77; S 4.18; F 3.05; W 3.3; N 3.43; T 3.24; R 4.32; V 4.17; I 4; Q 3.37
A14: Q 4.08; P 3.94; S 4.95; M 3.15; E 3.88; R 4.16; H 3.77; I 4.56; T 4.03; D 4.37; Y 3.89; W 3.31
P12: F 3.59; H 4.11; I 3.62; D 3.97; A 4.12; S 4.16; L 3.33; R 3.76; M 3.68; T 4.58; Q 4.18; C 3.31; N 3.89
A8: F 3.33; C 4.09; R 3.28; I 3.72; Q 4.34; Y 3.17; D 5.61; L 4.72; N 4.45; H 2.87; P 5.38
R17: A 3.11; V 4.3; H 4.67; Q 4.06; S 4; W 4.23; M 4.22; F 4.27; C 3.96; I 4.85; N 4.14; P 3.85; L 3.62; T 4.06
